B1: E1B 55 kDa protein (Human adenovirus C serotype 5 (HAdV-5)), P03243-1 (parent)
chain: MERRNPSERGVPAGFSGHASVESGCETQESPATVVFRPPGDNTDGGAAAAAGGSQAAAAGAEPMEPESRPGPSGMNVVQVAELYPELRRILTITEDGQGLKGVKRERGACEATEEARNLAFSLMTRHRPECITFQQIKDNCANELDLLAQKYSIEQLTTYWLQPGDDFEEAIRVYAKVALRPDCKYKISKLVNIRNCCYISGNGAEVEIDTEDRVAFRCSMINMWPGVLGMDGVVIMNVRFTGPNFSGTVFLANTNLILHGVSFYGFNNTCVEAWTDVRVRGCAFYCCWKGVVCRPKSRASIKKCLFERCTLGILSEGNSRVRHNVASDCGCFMLVKSVAVIKHNMVCGNCEDRASQMLTCSDGNCHLLKTIHVASHSRKAWPVFEHNILTRCSLHLGNRRGVFLPYQCNLSHTKILLEPESMSKVNLNGVFDMTMKIWKVLRYDETRTRCRPCECGGKHIRNQPVMLDVTEELRPDHLVLACTRAEFGSSDEDTD

Variants of: B1
Settings: with PML

Variant	effect of a mutation on the interaction
K104R	disrupting interaction
V103D	disrupting interaction

Variants of: B1
Settings: with pml_human PML

Variant	effect of a mutation on the interaction
K104R	disrupting interaction

— IntAct's records for PubMed 20639899
